Data from patent publication US20220088148A1 (HANMI PHARM, published 2022).
Bridges are numbered along the chain shown (N, C = ends). Where no end group is shown, it is not given here. [ ]: non-standard residue; d: D form. The star is where a group is joined. Acetyl(2-(4-imidazolyl)) = O=C(Cc1c[nH]cn1)*; Aib = CC(C)(N)C(=O)O

T1: human GIP receptor (human, UniProt P48546 22-466)
T1 sequence (looked up): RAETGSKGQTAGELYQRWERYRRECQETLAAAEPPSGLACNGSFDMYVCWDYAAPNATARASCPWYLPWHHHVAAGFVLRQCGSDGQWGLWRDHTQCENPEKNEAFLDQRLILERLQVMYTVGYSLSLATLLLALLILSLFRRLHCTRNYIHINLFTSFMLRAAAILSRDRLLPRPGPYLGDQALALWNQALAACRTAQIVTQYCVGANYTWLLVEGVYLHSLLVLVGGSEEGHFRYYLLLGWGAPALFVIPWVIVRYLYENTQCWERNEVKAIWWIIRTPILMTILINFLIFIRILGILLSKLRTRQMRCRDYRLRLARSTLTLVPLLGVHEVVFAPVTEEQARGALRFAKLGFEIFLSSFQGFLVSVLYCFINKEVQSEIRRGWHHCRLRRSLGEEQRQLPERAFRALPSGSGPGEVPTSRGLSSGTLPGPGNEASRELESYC


Columns and labels:
Experiment in all cases: cell-based or functional assay
[1] = target: human GLP-1 receptor (human, UniProt P43220 24-463)
[2] = target: human GCG receptor (human, UniProt P47871 26-477)
Chain of human GCG receptor (P47871 26-477): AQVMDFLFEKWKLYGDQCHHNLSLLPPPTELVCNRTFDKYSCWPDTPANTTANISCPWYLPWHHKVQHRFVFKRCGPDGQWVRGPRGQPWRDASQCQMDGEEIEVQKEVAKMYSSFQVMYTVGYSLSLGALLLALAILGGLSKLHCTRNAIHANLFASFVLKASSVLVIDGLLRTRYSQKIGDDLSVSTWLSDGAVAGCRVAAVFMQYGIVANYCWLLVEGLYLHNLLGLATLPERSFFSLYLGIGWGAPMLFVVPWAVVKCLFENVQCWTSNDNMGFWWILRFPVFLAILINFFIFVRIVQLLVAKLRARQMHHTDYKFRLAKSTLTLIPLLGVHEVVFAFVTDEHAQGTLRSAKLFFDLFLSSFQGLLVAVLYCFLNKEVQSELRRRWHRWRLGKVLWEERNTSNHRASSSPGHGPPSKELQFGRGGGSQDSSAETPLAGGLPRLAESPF

[3] = target: T1, human GIP receptor

| Binder | In vitro activity (%) vs. GLP-1, cAMP EC50 [1] | In vitro activity (%) vs. Glucagon, cAMP EC50 [2] | In vitro activity (%) vs. GIP, cAMP EC50 [3] |
| --- | --- | --- | --- |
| Y[Aib]QGTFTSDYSKYLDEKAAKDFVQWLLDHHPSSGQPPPSC (bridge 16-20) [triple agonist of SEQ ID NO: 77] | 38.7% | 12.2% | 35.5% |
| H[Aib]EGTFTSDYSIAMDEIHQKDFVDWLLAEKC (bridge 16-20) [triple agonist of SEQ ID NO: 80] | 8.1% | 0% | 0.1% |
| Y[Aib]QGTFTSDYSKYLDEKRAKDFVQWLLDHHPSSGQPPPSC (bridge 16-20) [triple agonist of SEQ ID NO: 76] | 10.3% | 47.6% | 11.7% |
| Y[Aib]QGTFTSDCSKYLDERAAKDFVQWLLDHHPSSGQPPPS (bridge 16-20; ends not checked) [triple agonist of SEQ ID NO: 72] | 11.5% | 1% | 1.6% |
| Y[Aib]QGTFTSDYSKYLDERACKDFVQWLLDHHPSSGQPPPS (bridge 16-20; ends not checked) [triple agonist of SEQ ID NO: 71] | 90.1% | 12.7% | 94.7% |
| {Acetyl(2-(4-imidazolyl))}-[Aib]QGTFTSDYSKYLDEKRQKEFVQWLLNTC (bridge 15-19) [triple agonist of SEQ ID NO: 81] | 7.8% | 0.3% | < 0.1% |
| {Acetyl(2-(4-imidazolyl))}-[Aib]QGTFTSDYSKCLDEKRAKEFVQWLLDHHPSSGQPPPS (bridge 15-19) [triple agonist of SEQ ID NO: 74] | 12.9% | 0.9% | 1% |
| Y[Aib]QGTFTSDYSKCLDEKRAKDFVQWLLDHHPSSGQPPPS (bridge 16-20; ends not checked) [triple agonist of SEQ ID NO: 70] | 15.1% | 71.3% | 64.4% |
| H[Aib]EGTFTSDYSIAMDEIHQKDFVNWLLAQKC (bridge 16-20) [triple agonist of SEQ ID NO: 79] | 41.5% | 4.9% | 1.4% |
| H[Aib]QGTFTSDVSKYLDGQAAQEFVAWLLKGC [triple agonist of SEQ ID NO: 8] | 14.2% | 0.1% | < 0.1% |
| H[Aib]QGTFTSDYSKYLDEKRQKEFVQWLLDTKC (bridge 16-20) [triple agonist of SEQ ID NO: 78] | 51% | 14% | 0.12% |
| [Acetyl(2-(4-imidazolyl))][Aib]QGTFTSDYSKYLDECRAKEFVQWLLDHHPSSGQPPPS (bridge 16-20; ends not checked) [triple agonist of SEQ ID NO: 73] | 22.6% | 5.4% | 3% |
| Y[Aib]QGTFTSDYSKYLDEKAAKEFVQWLLDHHPSSGQPPPSC (bridge 16-20) [triple agonist of SEQ ID NO: 75] | 35.1% | 8.5% | 18% |
